Measurements published in the nanobody polyreactivity screen of Harvey et al. (2022).

Test: yeast display, Sf9 membrane polyspecificity reagent, FACS + sequencing; frameworks hold sequencing errors
How it was run: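 A nanobody's polyreactivity label depends on the gate it was sorted from. Yeast display cells were stained with 10% biotinylated, detergent-solubilized Sf9 membrane reagent for 1 hour at 4 °C, enriched on streptavidin microbeads and sorted by FACS. The low and high (top ~1%) gates were set on anti-HA fluorescence for expression and streptavidin fluorescence for reagent binding.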

Sequence | polyreactivity (PSR sort gate)
QDQLVESGGGLVQAGGSLRLSCAASGYIFRIYAMGWYRQAPGKERELVATITNGGSTHYADSVKGRFTISRDNAKNTVYLQMNSLKPEDTAVYYCAADLLYSEYDYWGQGTQVTVSS | high polyreactivity
QVQLVESGGGLVQAGGSLRLSCAASGSLFSAYAMGWYRQAPGKEREFVAAITRRGGNTYYADSVKGRYTISRDNAKNTVYLQMNSLKPDDTAVYYCAADAGGGPFDYCGQGTQVTVSS | low polyreactivity
QVQLVESGGGLVQAGGSLRLSCAASGRIFFTNTMGWYRQAPGKERELVAAITRSGTRTYYADSVKGRFTISRDNAKNTVYLQMNSLKPEDTAVYYCNAVVRQLVRYDYWGQGTQVTVSS | high polyreactivity
QVQLVESGGGLVQAGGSLRLSCAASGSTFWSYTMGGYRQAPGKERELVAAISRSGGSTYYADSVKGRFTISRDNAKNTVYLQKNSLKPEDTAVYYCAASDRYGSRYYYWGQGTQVTVSS | high polyreactivity
QVQHVESGGGLVQAGGSLRLSCAASGLIFSWYAKGWYRQAPGKERELDASITIGGNTNYAYSVKGRFTISRDNAKNTVYLQMNSLKPEDTAVYYCDAQTFWYGYGGGDYWGQGTQVTVSS | low polyreactivity
QVQLVESGGGLVQAGGSLRLSCAASGRTFWSNAMGWYRQAPGKERELVAAISTGAGSTYYADSVKGRFTISRDNAKNTVYLQMNSLKPEDTAVYYCAAVYNGALYTYYYWGQGTQVTVSS | high polyreactivity
QVQLVESGGGLVQAGGSLRLSCAASGRIFRGYAMGWYRQAPGKERELVAAITTNGGSTYADSVKGRFTISRDNAKNTVYLQMNSLKPEDTAVYYCAARRVGWARGSGNYDYWGQGTQVTVSS | low polyreactivity
QVQLVESGGGLVQAGGSLRLSSAASGSIFYKNAKGWYRQAPGKEREFVAGISRRGGSTYYADSVKGRFTISLDNAKNTVYLQMNSLKPEDTAVYYCASSQSGGYDYWGQGTQVTVSS | high polyreactivity
QVQLVESGGGLVQAGGSLRLSCAASGSTFRANTMGWYRQAPGKERELVAAITSGGSTYYADSVKGRFTISRDNAKNTVYLQMNSLKPEDTAVYYCAADYTGDWADGPHSLREYDYWGQGTQVTVSS | low polyreactivity
QVQLVESGGGLVLAGGSLRLSCAASGRTFVPYAMGWYRQAPGKERELVAAMSQSGGRTYYTDSVKGRFTISGETAKNTVYLQMNSLNPEDTAVYYCAADVRSSIGHFTLYDYWGQGTQVTVSS | high polyreactivity
QVQLVESGGGLVQAGGSLRLSCAASGSTLGPNVMGWYRQAPGKERELVAAISWRGGSTYYADSVKGRFTISRDNAKNTVYLQMNSLKPEDTAVNYGAARTTTYPYGYWGQGTQVTVSS | high polyreactivity
QVQLVESGGGLVQAGGSLRLSCAASGRIFSKYAMGWYRQAPGKERELVASIRWRGDRTYYADSVKGRFTISRDNAKNTVYLQMNSLKTEDTAVYYCAADEPGYGVGYWTYPVVPYDYWGQGTQVTVSS | low polyreactivity
QVQLEESGGGLVQAGGRLRLTCAASGRTFFGYPMGWYRQAPGKERELVAAITSSGGRTYYADSVKGRFTISRDNPKNTDYLQMNSLKPEDTAVYYCAARRYRLSTPEFNYWGQGTQVTVSS | high polyreactivity
QVQLVESGGGLVQAGGSLPLSCAASGRIFNQYGMVWYRQAPGKERELVAAIRSGDSTNYADSVKGRFTISRDNAMNTVYLQMKSLKPEDPAVYYCARDRPGDYAGYDYWGQGTQVTVSS | low polyreactivity
QVQLVESGGGLGQAGGSLRLSCAASGRIFTFNAMGWYRQAPGKARELVAAISSRGDGTYYADSVKGRFTISRDNAKNTVYLQMNSLKPEDTAVYDCAADVYPYQSLSYPLQYELDYWGQGTQVTVSS | low polyreactivity
QVQLVESGGGLVQAGGSLRLSCAASGYTFDKYAMGWYRQAPGKERELVAAISSGGRTYYADSVKGRFTISRDNAKKTVYLQMNSLKPEDTAVYYCAKGSAGRGMDSWGQGTQVTVSS | low polyreactivity
QVQHVESRGGLVQAGGSLRLSCAASGSTIGFYAMGWYRQAPGKERELVAGITNGGRTYYADSVKGRFTISRDNAKNTVYLQMISLKPEDTAVYYCIRTPRSKGNYWGQGTQVTVSS | high polyreactivity
QVQLVESGGGLVQAGGSLRLICAASGSIFVNYAMGWYRQAPGKERELVAAITRSGGGTYYADSVKGRFTISRDNAKNTVYLQMNSLKPEVTAVYYCAARLGYAGNRDGYWGQGTQVTVSS | high polyreactivity
QVQLVESGGGLVQAGGSLRLSCAASGLIFPRYAMGWYRQAPGKETELVAAISRSGGNTYYADSVKGRFTISRDNAKNTVYLQINRLKPEDTAVYYCAAYLKVRSPRDGYDYWGQGTQVSVSS | high polyreactivity
QVHLVESGGGLVQAGGSLRLSCAASGNIFYVYVMGWYRQAPGKERELVAYITSGASTYYSDSVKGRFTISRDNAKNTVYFQMNSLKPEDTAVYYCAAEALGGAGAYSTLYIYDYWGEGTQVTVSS | low polyreactivity
QVQLVESGGGLVQAGGSLRLSCAASGFTFDSYAMGWYRQAPGKERELVAAISYRGGTTYYADSVKGRFTISRDNAKNTVYLQMNSLKPEDTAVYYCATPYKYVTGEDYWGQGTQVTVSS | high polyreactivity

Sequence | polyreactivity (PSR sort gate)
QVQHVESGGGLDQAGGSLPLSCASSGSTFAYYAMGWYRQAPGKERELVASITWSGGITYYADSVKGRFTISRDNAKNTVYLQMNSLKPEETAVYYCNVVPYYGYYYWGQGSQVTVSS | low polyreactivity
QVQLVESGGGLVQAGGSLRLSCAASGSIFFSNAMGWYRQAPGKERELVAAITSSGASTYYADSVKGRFTISRDNAKNTVYLQMNSLKPEDTAVYYCAVVGRGKRYGYWGQGTQVTVSS | high polyreactivity
QVQLVESGAGLVQAGGSLRLSCAASGRILHEYAMGWYRQAPGKERELVAAITFSGTSTYYADSVKGRFTISRDNAKNSVYLQMNSLKPEDTAVYYCAADTYGGSRDYWGQGTQVTVSS | low polyreactivity
QVQLVESGGGLVQAGGSLRLSCAASGLTFRLNAMGWYRQAPGKERELVAAITAIGDRTYYADSVKGRFTISRDNAKNTVYLQMNSLKPEDTAVYYCNVTPRRAQVRIGNYWGQGTQVTVSS | high polyreactivity
QVQLVESGGGLVQAGGSLRLSCAASGSIFSKYAMGWYRQAPGKERELVAAISGSGGDTYYADSVKGRFTISRDNAKNTVYLQMNSLKPEDTAVYFCAAEDQQNGYDYWGQGTQVTVSS | low polyreactivity
QVQLVESGGGLVQAGGSLRLSSAASGRIFTYYAMGWYRQAPGKVREVVAAISFRGASTYYADSVKGRVTISRDYAQNTVYLQMHSLKPEDTAVYYGAAERIARPTIDYWGQGTQVTVSS | low polyreactivity
QVQLVESGGGLVQAGGSFRLSCPASGGPVDTYVMGCYRQARGKERELVAVITRGASTYYADSVKGRFTITRDNAKNTVYLQNNRLKPEDTAVYYCAAAFYSPDFYRFWYSFDYWGQGTQVTVSS | low polyreactivity
QVQLVESGGGLVQAGGSLRLSCAASGSIFHPYAMGWSRQAPGKERELVASISKRGGSTYYADSVKGRFTISRDNAKNTVYLQMNSLKPEDTAVYYCAKLYTIGYDYWGQGTQVTVSS | low polyreactivity
QVQLVESGGGLVQAGGSLGLSCAASGSIFLRYTLGWYRQAPGKERELVAAISWSGGSTYYADSVKGRFTMSRDNAKNNVYLQMNSLKREDTAVYYCNAVYASWSYPGYDYWGQGTQVTVSS | high polyreactivity
QVQLVEAGGGLVQAGGSLRLSCAASGFIFSSNAMGWYRQAPGKERELVAGITASGVSTYYADSVKGRFTISRDNAKNTVYLQMNSLKPEDTAVYDCAALGLYYYFYSQYIAWDDYWGQGTQVTVSS | low polyreactivity
QVQLVESGGGLVQAGGSLRLSCAASGLTFVYNAMGWYRQATGKERELVAAISRVGSTNYADSVKGRFTISRDNAKYTVYLQLNSLKPADTAVYYCNKGNAYVVYTSGYDYWGQGTQVTVSS | low polyreactivity
QVQLVESGGGLVQAGGSLRLSCAASGYTFKSYFTGWYRQAPAKERELVAAITSIGGSTYYADSVKGRFTISRDNAKNTVYFLMNSVKPEDTEVYYCAKRRRGYAFSSDYWGPGTQVTVSS | high polyreactivity
QVQLEESGGGIVQAGGSLRLRCAAAGRSVYYYAMAWYRQAPGKEREFVADITARGGSTYYADSVKGRFTISRDNAKNSVYLQMNSLKPEDTAVYYCAAYIYVTYYYWGQGTQVTVSS | high polyreactivity
QVQLVESGGGLVQAGGSLRLSCAASGSTFVYYAMGWYRQAPGKEREFVATIYRGDNTNYADSVKGRFTISRDNAKNTVYLQMNSLKPEDTAVYYCAADEPKWDLGGGTYLRDYWGLGTQVTVSS | low polyreactivity
QVQLVESGGGLVQAGCSLRLSCAASGRIFPRNVMGWYRQAPGKERELVAAISSRGTRTYYADSVKGRFTISRDNAKNTVYLQMNSLKPEDTAVYYCAADGPYEGYDYWGLGTQVTVSS | high polyreactivity
QVQLVESGGGLVQAGGSLRLSCAASGTFPVYTMGWYRQAPGKERELVAAISRNGGSTYYADSVKGRFTISRDNAKNTVYLQMNSLKPEDTAVYYCAAVKVKRPGMDYWGQGTQVTVSS | high polyreactivity
QVQLVESGRGLVQAGGSLRLSCAASGGTFGWYAMGWYRQAPGKERELVAAISQGGGSTYYADSVKGRFTISRDNAKNTVYLQMNSLKPEDTAVYYCAAYLGRAKGYEYWGQGTQVTVSS | high polyreactivity
QVQLVETGGGLVQAGGSLRLSCAASGSIFERYAMGWYRQAPGKEREFVATITSGGGRTYYADSVKGRFTISRDNAKNTVYLQMNSLKPEDTAVYYCAAASYRRQPFNYWGQGTQVTVSS | high polyreactivity
QVKLVESGGGLDKAGGSLRLSCAASGLIFYLYPKGWYRQAPGQERELVAAISRSGDTTYYADSVKGRFTISRDNAKNTVYLQMNSLKPEDTAVYYCAADDYYKFDYWGQGTQVTVSS | low polyreactivity
QVPLVESGGGLVQAGGSLRLSCAASGSIFYPYAMGWYRQAPGKERELVASITWSGGSTYYADSVKGRITISRDNATNSVYRQMNSLKPEDTAVYYCAADEKLYITGYDYWGQGTQVTVSS | low polyreactivity
